Results reported in patent US20180009892A1 (EUREKA THERAPEUTICS, published 2018).
Changes are numbered by the printed parent chain.

B1: P601-112 (scFv, V domains shown)
VH: EVQLVQSGGDLVQPGGSLRLSCAASGFTFSSYSMNWVRQAPGKGLEWVSSISSSSSYIYYADSVKGRFTISRDNAKNSLYLQMNSLRAEDTAVYYCARGLGGWTHDAFDIWGQGTTVTVSS
VL: QSALTQPASVSGSPGQSITISCTGTSSDVGGYNYVSWYQQHPGKAPKLMIYDVSKRPSGVSNRFSGSKSGNTASLTISGLQAEDEADYYCSSYTGRSTVFGGGTKLTVL
B2: P601-13 (scFv, V domains shown)
VH: EVQLVQSGAEVKKPGSSVKVSCKASGGTFSTFAINWVRQAPGQGLEWMGGVIPVSGTEDYSQKFQGRLSLTADESTGTAYMELSSLRSDDTAVYYCARDRSGRDWDYFDYWGQGTLVTVSS
VL: DIVMTQSPSSLSASVGDRVTITCQASQDISNYLNWYQQKPGKAPKLLIYDASNLETGVPSRFSGSGSGTDFIFTISSLQPEDIATYYCQQFDNLPYTFGQGTKVEIKR
B3: P601-101 (scFv, V domains shown)
VH: EVQLVQSGNEVKRPGASVKVSCKASGHSFSTYGFSWVRQAPGQGLEWMGWISTYNGNTNYAQKLQGRVTMTTDTSTSTAYMELRSLRSDDTAVYYCARDYYSDSSGYWDDAFDIWGQGTLVTVSS
VL: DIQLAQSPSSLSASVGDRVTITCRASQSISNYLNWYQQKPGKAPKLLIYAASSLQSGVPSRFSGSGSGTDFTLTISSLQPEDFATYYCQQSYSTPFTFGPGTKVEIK
B4: P601-137 (scFv, V domains shown)
VH: QVQLQQSGAEVKKPGASVKVSCKASGYTFSRYYIHWVRQAPGQGLEWMGIINTDGGTTTYAQKFQGRLTMTRDTSTSTVYMELSSLRSDDTAVYYCARDYGTIDARRFDYWGQGTLVTVSS
VL: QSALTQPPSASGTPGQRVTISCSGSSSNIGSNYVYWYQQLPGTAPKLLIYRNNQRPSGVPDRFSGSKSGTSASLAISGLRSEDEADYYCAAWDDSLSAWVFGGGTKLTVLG
B5: P601-86 (scFv, V domains shown)
VH: QVTLKESGPTLLKPTQTLTLTCTFSGFSLSTRGVGVGWIRQPPGQALEWLTLIYWDDDKRYSPSLKSRLTITKDTSKNQVVLTMTNMESVDTATYYCAQQTMTGAFDIWGQGTTVTVSS
VL: DIQMTQSPSSVSASVGDRVTITCRASQGISTLLAWYQQKPGKAPKLLISSASSLQSGVPARFSGSGSGTDFTLTISSLQPEDFATYYCQQSYRAPTFGQGTKVEIKR
B6: P601-120 (scFv, V domains shown)
VH: B1 VH
VL: QSALTQPASVSGSPGQSITISCTGTSSDVGGYNYVSWYQQHPGKAPKLMIYDVSNRPSGVSNRFSGSKSGNTASLTISGLQAEDEADYYCSSYTSSSTRVFGGGTKLTVL
B7: P601-103 (scFv, V domains shown)
VH: B1 VH
VL: B6 VL with A3V, S26T, N55K, R99D, G103T
B8: P601-110 (scFv, V domains shown)
VH: B1 VH with E1Q
VL: QSALTQPASVSGSPGQSITLSCTGTSSDVGGYNYVSWYQQHPGNGPKLIIYDVTKRPSGVSNRFSGSKSGNTAYLTISGLQAEDEADYYCASYTRSTTLVFGGGTKLTVL
B9: P601-40 (scFv, V domains shown)
VH: QVQLQQSGAEVKKPGASVKVSCKASGYTSTNYGISWVRQAPGQGLEWMGWISTYNGNTNYAQKLQGRVTMTTDTSTSTAYMELRSLRSDDTAVYYCARDYYSDSSGYWDDAFDIWGQGTMVTVSS
VL: DIQLTQSPSSLSASVGDRVTITCRASQNINNYLNWYQQKPGKAPKLLLYAASSLQSGVPSRFSGSGSGTEFTLTISSLHPEDFATYYCQQSYNTPFTFGPGTKVDIKR
B10: P601-81 (scFv, V domains shown)
VH: EVQLVESGGGVVRPGGSLRLSCATSGFNFDNYGLSWVRQGPGKGLEWMGFIYKSVNTNYSPSLKSRLTISMDTSKNQFSLNLASVTTADTAIYYCARGKVETSVVDYWGQGTLVTVSS
VL: NFMLTQPRSVSESPGKTVTISCTGNGGRVANNYVQWYQQRPGSAPTTVIYEDNQRPSGVPARFSGSIDSSSNSASLTISGLKTDDEADYYCQSYDISNQRVFGGGTKLTVL
B11: P601-136 (scFv, V domains shown)
VH: B4 VH with Q5V, I50L, T53P, D54G, T57S, T59N, L68V, S77N, M81L, Y110F
VL: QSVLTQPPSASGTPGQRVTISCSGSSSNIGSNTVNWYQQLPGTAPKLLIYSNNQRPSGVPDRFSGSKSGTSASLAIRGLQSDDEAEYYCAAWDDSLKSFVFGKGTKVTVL
B12: P601-130 (scFv, V domains shown)
VH: EVQLVETGGGLVKPGGSLRLSCEASGFSLSSYSMNWVRQAPGKGLEWVSSISSSSTHIYYADSLKGRFTISRDNAKNSLFLQMDNLRAEDTAVYYCARATIGFDYWGQGTLVTVSS
VL: QSVLTQPPSVSGAPGQRVTISCTGSSSNIGAGYDVHWYQQLPGTAPKLLIYGNSNRPSGVPDRFSGSKSGTSASLAITGLQAEDEADYYCQSYDSSLSGYVFGTGTKLTVL
B13: P601-87 (scFv, V domains shown)
VH: QVQLQESGPGLVKSSETLSLTCTVSGGSMNNYYWSWIRQPAGKGLEWMGRIYSSGSTNYNPALKSRVTMSVDTSKNQFSLNLSSVTAADTAIYYCARASWSGTYWALFDYWGQGTLVTVSS
VL: ETTLTQSPAFMSATPGDKVNISCKASQDIDDDLNWYQQKPGEAPILIIQEATTLVPGIPPRFSGSGFGTDFTLTINSMQSEDVAYYFCLQHDNFPPTFGQGTKVEIK
B14: P601-109 (scFv, V domains shown)
VH: B1 VH with E1Q, V2M
VL: QSALTQPASVSGSPGQSITISCTGTSSDVGGYNYVSWYQQHPGKAPKLLIYEVSQRPSGVPDRFSGSKSGNTASLTVSGLQAEDEADYYCSSYAGDRDVFGTGTQLTVLS
B15: P601-65 (scFv, V domains shown)
VH: QVQLQQSGPGLVKPSQTLSLTCAISGDSVSSNSATWNWIRQSPSRGLEWLGRTYYRSKWYNDYAVSVKSRIIINPDTSKNQFSLQLNSVTPEDTAVYYCARGVRAFDIWGQGTTVTVSS
VL: QSVLTQPPSVSGTPGQRVTIFCSGGSNNIGRSSVYWYRQAAGTAPKLLIYKTDQRPSGVPDRFAASKSGASASLAISGLRSEDEADYHCATWDDSLSAVVFGGGTKLTVL
B16: P601-100 (scFv, V domains shown)
VH: B1 VH with D10G, L11V, S17P, T116M
VL: B6 VL with S27R, N33D, H41Y, K44N, N55R, N62H, G66A, A82T, L107V
B17: P601-5 (scFv, V domains shown)
VH: EVQLVESGGGLVKPGGSLRLSCAASGFTFSDYYMGWVRQAPGKGLKWLSYISDRAHTIYDTDSVKGRFTISRDDAKSSLYLRMNNLRVEDTAVYYCARAVGAGEGFDYWGQGTLVTVSS
VL: not shown
B18: P601-2 (scFv, V domains shown)
VH: QVTLKESGPTLVKPTQTLTLTCTFSGFSLSSFGVAVGWFRQPPGKALEWLGLIYWDDDKRYSPSLKTRLTITKDTSKNQVVLTMTNMDPVDTATYYCAHKGGIATTGSPNWFDPWGQGTLVTVSS
VL: not shown
B19: P601-3 (scFv, V domains shown)
VH: QVTLKESGPTLVKPTQTLTLTCTFSGFSLNSFGVAVGWFRQPPGKALEWLGLIYWDDDRRYFPSLEGRLSITKDASDNNVVLTMMNVDPADTATYYCARTSPMVQGIANYYAMDVWGQGTTVTVSS
VL: not shown
B20: P601-153 (scFv, V domains shown, not shown: large carriers; small tags and cut ends)
VH: QMQLVQSGAEVKKPGASVKVSCKASGYTFTSYYMHWVRQAPGQGLEWMGIINPSGGSTSYAQKFQGRVTMTRDTSTSTVYMELSSLRSEDTAVYYCARGGYTGWSPSDPWGQGTLVTVSS
VL: B6 VL with L48F, N55K, S91G, Y93F, S97I, R99Y, G103T, L107V
B21: P601-6 (scFv, V domains shown)
VH: B17 VH with R19K, D62H, G110C
VL: DIQMTQSPSSLSASVGDRVTITCQASQDIRNYLNWYQQKPGKAPKLLIYAASNLETGVPSRFSGSGSGTDFTFTISSLQPEDIATYYCQQDDNLPLTFGGGTKLEIK
B22: P601-149 (scFv, V domains shown, not shown: large carriers; small tags and cut ends)
VH: B17 VH with V2A
VL: B21 VL with M4L, I29V, K45N, A50D, S52T, T56S, I83F, D91Y, T97S, L104V
B23: P601-66 (scFv, V domains shown)
VH: QVQLVQSGAEVKEPGASVKVSCKASGYTFRNSGITWVRQAPGQGLEWMGWINPNSGGAMYVDNFQGRATMTRDTSINTAYMELRSLSSDDTAVYYCARGMADLIDVFDIWGQGTLVTVSS
VL: TQPALTQPASVSGSPGQSITISCTGTSSDFGDYDYVSWYQQHPGKAPKLMIYDVSDRPSGVSNRFSGSKSGNTASLTISGLQAEDEADYFCSSFTTSSTLVFGGGTKLTVL

Target: T1, human ROR2-ECD (human, UniProt Q01974 34-403)
T1 construct: extracellular domain; also called hROR2
Test: protein ELISA, phage

T1 sequence (Q01974 34-403): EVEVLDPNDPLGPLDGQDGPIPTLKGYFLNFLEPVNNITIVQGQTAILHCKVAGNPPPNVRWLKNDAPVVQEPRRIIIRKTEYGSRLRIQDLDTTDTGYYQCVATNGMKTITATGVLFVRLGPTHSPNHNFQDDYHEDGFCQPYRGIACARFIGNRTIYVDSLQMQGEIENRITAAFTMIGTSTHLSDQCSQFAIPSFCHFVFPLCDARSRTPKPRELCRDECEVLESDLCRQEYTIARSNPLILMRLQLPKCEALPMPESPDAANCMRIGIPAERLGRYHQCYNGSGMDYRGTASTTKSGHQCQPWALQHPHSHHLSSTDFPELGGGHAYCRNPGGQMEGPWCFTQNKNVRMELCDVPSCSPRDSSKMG

Binder | binding result
B1 | no binding
B2 | no binding
B3 | no binding
B4 | no binding
B5 | no binding
B6 | no binding
B7 | no binding
B8 | no binding
B9 | no binding
B10 | no binding
B11 | no binding
B12 | no binding
B13 | no binding
B14 | no binding
B15 | no binding
B16 | no binding
B17 | no binding
B18 | no binding
B19 | no binding

Target: T2, human ROR1 extracellular domain (ECD) protein (human, UniProt Q01973 30-406)
T2 construct: also called hROR1-ECD; human ROR1-ECD
Test: competitive phage ELISA: soluble ROR1 against ROR1-coated plate
Experimental: Purified phage antibodies were first diluted serially in PBST buffer, and tested for binding to a ROR1-coated plate. The dilution that gave 50-80% saturating signal was used in the solution binding assay in which phage were first incubated with increasing concentration of ROR1 for one to two hours, and then transferred to a ROR1-coated plate for 10-15 minutes to capture the unbound phage.

T2 sequence (Q01973 30-406 limits assumed): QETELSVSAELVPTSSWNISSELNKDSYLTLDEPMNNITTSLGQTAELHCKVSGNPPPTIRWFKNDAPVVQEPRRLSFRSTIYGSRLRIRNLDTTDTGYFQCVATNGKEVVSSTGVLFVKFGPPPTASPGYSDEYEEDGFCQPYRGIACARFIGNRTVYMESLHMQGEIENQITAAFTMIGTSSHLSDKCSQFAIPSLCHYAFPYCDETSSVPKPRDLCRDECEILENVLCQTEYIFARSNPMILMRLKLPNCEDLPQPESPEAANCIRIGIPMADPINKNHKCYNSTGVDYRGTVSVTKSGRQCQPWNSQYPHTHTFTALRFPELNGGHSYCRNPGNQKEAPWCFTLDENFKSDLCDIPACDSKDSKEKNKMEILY

Binder | IC50
B1 | 2.89 nM
B2 | 1.21 nM
B3 | 1.5 nM
B20 | 1.53 nM
B4 | 1.82 nM
B5 | 1.84 nM
B6 | 1.92 nM
B7 | 8.72 nM
B8 | 4.57 nM
B21 | 2.12 nM
B9 | 0.2 nM
B10 | 2.76 nM
B22 | 2.76 nM
B11 | 3.02 nM
B12 | 3.08 nM
B13 | 3.86 nM
B23 | 4.05 nM
B14 | 0.22 nM
B15 | 4.23 nM
B16 | 5.8 nM
